Results reported in patent US20230220346A1, “BIOLOGICALLY SYNTHESIZED HYDROXYAPATITE FOR BONE REGENERATION AND TISSUE ENGINEERING” (BIOVENTURES, LLC, priority 2019, published 2023).

B1: ALPL: Recombinant human tissue-nonspecific alkaline phosphatase (R&D Systems) (protein, listed as Homo sapiens)
chain: MISPFLVLAIGTCLTNSLVPEKEKDPKYWRDQAQETLKYALELQKLNTNVAKNVIMFLGDGMGVSTVTAARILKGQLHHNPGEETRLEMDKFPFVALSKTYNTNAQVPDSAGTATAYLCGVKANEGTVGVSAATERSRCNTTQGNEVTSILRWAKDAGKSVGIVTTTRVNHATPSAAYAHSADRDWYSDNEMPPEALSQGCKDIAYQLMHNIRDIDVIMGGGRKYMYPKNKTDVEYESDEKARGTRLDGLDLVDTWKSFKPRYKHSHFIWNRTELLTLDPHNVDYLLGLFEPGDMQYELNRNNVTDPSLSEMVVVAIQILRKNPKGFFLLVEGGRIDHGHHEGKAKQALHEAVEMDRAIGQAGSLTSSEDTLTVVTADHSHVFTFGGYTPRGNSIFGLAPMLSDTDKKPFTAILYGNGPGYKVVGGERENVSMVDYAHNNYQAQSAVPLRHETHGGEDVAVFSKGPMAHLLHGVHEQNYVPHVMAYAACIGANLGHCAPASSAGSLAAGPLLLALALYPLSVLF
modifications: (1)..(524) Human tissue nonspecific alkaline phosphatase (ALPL)
B2: SAP: shrimp hepatopancreas alkaline phosphatase (protein, listed as Pandalus borealis)
chain: MIGRTTFIALFVKVLTIWSFTKGEDCVWDNDVDYPEYPPLILDSSFQLVLPVLEGDQRITSVQSGSELILACPGREISALGSEDAQATCLGGKLVEVDGKEWNIVELGCTKMASETIHRNLGQCGDQDLGIYEVIGFDLPTTGHFYELIRVCFDPANETTIFSENIVHGASIAAKDIDPGRPSFKTSTGFFSVSMISVYSQRNQLELMKNLLGDDELAATIIDPSKQFYFAKGHMAPDADFVTVVEQDATYYYINALPQWQAFNNGNWKYLEYDTRDLAEKHGTDLTVYSGGWGVLELEDINGNPVEIYLGLAQDKKVVPAPALTWKVIYEKDTNRAAAIVGINNPHITTAPEPLCTDICSSLTWLDFDFGDLVHGYTYCCSVADLRAAIPNVPDLGDVDILDE
modifications: (1)..(404) Shrimp alkaline phosphatase (rSAP)
B3: CIP: calf intestinal alkaline phosphatase (protein, listed as Bos taurus)
chain: MQGACVLLLLGLHLQLSLGLVPVEEEDPAFWNRQAAQALDVAKKLQPIQTAAKNVILFLGDGMGVPTVTATRILKGQMNGKLGPETPLAMDQFPYVALSKTYNVDRQVPDSAGTATAYLCGVKGNYRTIGVSAAARYNQCKTTRGNEVTSVMNRAKKAGKSVGVVTTTRVQHASPAGAYAHTVNRNWYSDADLPADAQMNGCQDIAAQLVNNMDIDVILGGGRKYMFPVGTPDPEYPDDASVNGVRKRKQNLVQAWQAKHQGAQYVWNRTALLQAADDSSVTHLMGLFEPADMKYNVQQDHTKDPTLQEMTEVALRVVSRNPRGFYLFVEGGRIDHGHHDDKAYMALTEAGMFDNAIAKANELTSELDTLILVTADHSHVFSFGGYTLRGTSIFGLAPSKALDSKSYTSILYGNGPGYALGGGSRPDVNDSTSEDPSYQQQAAVPQASETHGGEDVAVFARGPQAHLVHGVEEETFVAHIMAFAGCVEPYTDCNLPAPTTATSIPDAAHLAASPPPLALLAGAMLLLLAPTLY
modifications: (1)..(533) Bovine intestine alkaline phosphatase (CIP)

Columns and labels:
Saos-2 cell line = test: Alizarin Red S (ARS) biomineralization assay in Saos-2; assay type: cell-based, human; settings: MEMα/10% FBS with βGP (2 mM) plus the ALP (1 U/mL), 7 days
Procedure: (§1) Biomineralization assays and Alizarin Red S staining: All human and mouse cell lines and human peripheral blood mononuclear cells (MNCs) were maintained in MEMα/10% FBS with penicillin/streptomycin and glutamine in a 37° C. humidified incubator with 5% CO2. […] The medium was replaced after 4 days. Alizarin Red S staining was performed at room temperature by removing the culture medium, washing the cells twice with 1×PBS (pH 7.4), fixing the cells in 10% neutral buffered formalin (Richard-Allan Scientific, Kalamazoo, Mich., USA) for 30 min, rinsing twice with Milli-Q water, staining with Alizarin Red S for 30 min, and destaining twice in Milli-Q water. A ZEISS inverted fluorescence/brightfield microscope equipped with an Infinity 3 digital camera and software system was used for imaging.

MG-63 cell line = test: Alizarin Red S (ARS) biomineralization assay in MG-63; assay type: cell-based, human; settings: MEMα/10% FBS with βGP (2 mM) plus the ALP (1 U/mL), 7 days
Procedure: as §1

[1] = tested on: MG-63 and Saos-2 cell lines; test: Alizarin Red S biomineralization assay: phosphate source comparison, titration, ascorbic acid (FIG. 1A, 1C, 1E-G); assay type: cell-based, human; settings: FIG. 1E-G
Procedure: as §1

[2] = tested on: human blood mononuclear cells (MNCs); test: Alizarin Red S biomineralization assay in human blood mononuclear cells; assay type: cell-based; settings: MEMα/10% FBS with αGP alone or CIP alone (the other missing), 7 days
Procedure: as §1
Coating cell culture plate with Collagen Type I, rat tail for mineralization assays: To coat a 48-well plate with Collagen Type I at 5 μg/cm^2, the stock solution was diluted to 25 μg/mL in 17.5 mM of acetic acid and aliquoted […] into each well. After incubating at room temperature for one hour, the Collagen Type I solution was removed. Each well was rinsed with 1×PBS (pH 7.4) and air-dried at room temperature. Human blood MNCs were suspended in the conditioned media and distributed into each well (1×10^5 cell/well) prior to a 7-day incubation. […]

Row | Molecule | biomineralization (Alizarin Red S staining) (Saos-2 cell line) | biomineralization (Alizarin Red S staining) (MG-63 cell line) | dose dependence of biomineralization (titration assays) [1] | biomineralization (Alizarin Red S staining) [2]
1 | B1 | biomineralization was observed | biomineralization was observed |  | 
2 | B2 | mineralized | mineralized |  | 
3 | B3 | mineralized | mineralized | depended on the doses | did not occur
